B1: STS165 (full-length IgG form) (antibody, V domains shown)
VH: EVQLVESGGGVVRPGGSLRLSCAASGFTFDDYGMSWVRQAPGKGLEWVSGINWNGGSTGYADSVKGRFTISRDNAKNSLYLQMNSLRAEDTALYHCARVGYCGGDCYSLSLAGFPDYWGQGTLVTVSS
VL: not shown
B2: STS165 Fab form (Fab, V domains shown)
VH: B1 VH
VL: not shown

Biological target: SARS-CoV-2 Omicron RBD protein (SARS-CoV-2 Omicron (BA.1), S371L | S373P | S375F)
Assay: SPR

Row | Binder | fold decrease of binding affinity against WT RBD [fold] | fold decrease of binding affinity against the IgG form [fold]
1 | B1 | 3 | –
2 | B2 | – | > 50
